From the supplement of paper PMC5998384 come the findings set out here.

Data set [1] has as its system HeLa Kyoto. In words: solubility in G1/S (NP-40 vs SDS abundance) (log2 ratio); higher = more soluble. The conditions noted are these: cell cycle stage: G1/S.
The test system of data set [2] is HeLa Kyoto. As to the kind of experiment: solubility change mitosis vs G1/S (difference of NP-40 vs SDS log2 ratios) (log2 ratio difference); higher = more soluble in mitosis.
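For solubility change mitosis vs G1/S (difference of NP-40 vs SDS log2 ratios) in this document: synchronized HeLa Kyoto cells (double thymidine block for G1/S, nocodazole release for mitosis), protein amounts in NP-40 versus SDS lysates quantified by mass spectrometry, three biological replicates.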
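For solubility in G1/S (NP-40 vs SDS abundance) in this document: HeLa Kyoto cells arrested at G1/S by double thymidine block, proteins quantified by TMT10plex mass spectrometry in mild NP-40 versus SDS extracts, three biological replicates.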

For “MQPPPRKVKVTQELKNIQVEQMTKLQAKHQAECDLLEDMRTFSQKKAAIEREYAQGMQKLASQYLKRDWPGVKADDRNDYRSMYPVWKSFLEGTMQVAQSRMNICENYKNFISEPARTVRSLKEQQLKRCVDQLTKIQTELQETVKDLAKGKKKYFETEQMAHAVREKADIEAKSKLSLFQSRISLQKASVKLKARRSECNSKATHARNDYLLTLAAANAHQDRYYQTDLVNIMKALDGNVYDHLKDYLIAFSRTELETCQAVQNTFQFLLENSSKVVRDYNLQLFLQENAVFHKPQPFQFQPCDSDTSRQLESETGTTEEHSLNKEARKWATRVAREHKNIVHQQRVLNDLECHGAAVSEQSRAELEQKIDEARENIRKAEIIKLKAEARLDLLKQIGVSVDTWLKSAMNQVMEELENERWARPPAVTSNGTLHSLNADTEREEGEEFEDNMDVFDDSSSSPSGTLRNYPLTCKVVYSYKASQPDELTIEEHEVLEVIEDGDMEDWVKARNKVGQVGYVPEKYLQFPTSNSLLSMLQSLAALDSRSHTSSNSTEAELVSGSLNGDASVCFVKALYDYEGQTDDELSFPEGAIIRILNKENQDDDGFWEGEFNGRIGVFPSVLVEELSASENGDTPWMREIQISPSPKPHASLPPLPLYDQPPSSPYPSPDKRSSLYFPRSPSANEKSLHAESPGFSQASRHTPETSYGKLRPVRAAPPPPTQNHRRPAEKIEDVEITLV [FCHSD2]”, the “solubility in G1/S (log2)” value in data set [1] is 0.194. Further, the “solubility change mitosis (log2)” value in data set [2] is -0.00785.
For “MQQESERCRVRARRPDMALYVPKARRGAVLLKTGDEEESCGSPNSVVKEKQKESSLSQKEVFKDKPEARRLNINPDRKEHNCREEKKSSTKLRMDTCLQKTNRVCSKRGTTESKEVLSQGQQQGAPNAGVITNAPLQRHFKPKKVECLEVETTDVTGHERILLSQACLEISEAQVPSKPFQNVEFCDFSRHEPDGEAFEDKDLEGRIETDTKVLEILYEFPRVFSSVMKPENMIVPIKLSSDSEIVQQSMQTSDGILNPSSGGITTTSVPGSPDGVFDQTCVDFEVESVGGIANSTGFILDQKDTDSIPATMGHISLSESTNDTVSPVMIRECEKNDSTADELHVKHEPPDTAVLAHETHRDSGFKNVGDITNKACMMDTTGMSCSDHVTVDSPYVVAVRIADETSINTRSFSKFVGMSADATPLHVARSGNDTEDFSNPSACSDIYGESISSHFTESTGKLIESLSDCASSLPIKKIAGSNYNTFLDSELSMLNGTKVLSDSAVGIDLGSTGDTTEALHELRTAEEFKTEEQDDSGSIEFGVSFPDRESSSMETSIEPKATETSHTEGITAIEESWESMFNDDGDCLDPRLLQEGILMHIKPENHCSKLSGNTKSRESIQEPRSDYYNHEVPDIDLSDCEFPHVIEIYDFPQEFHTEDLLRVFCSYQKKGFDIKWVDDTHALGVFSSPITARDALGIKHTMVKIRPLSQATRAAKAKARAYAEFLQPAKERPETSAALARRLVISALGVRSKQSKTEREAELKKLQEARERKRLEAKQREDIWEGRDQSTV [R3HCC1L]” the same measures were -0.118 and 0.112.
For “MQREEKQLEASLDALLSQVADLKNSLGSFICKLENEYGRLTWPSVLDSFALLSGQLNTLNKVLKHEKTPLFRNQVIIPLVLSPDRDEDLMRQTEGRVPVFSHEVVPDHLRTKPDPEVEEQEKQLTTDAARIGADAAQKQIQSLNKMCSNLLEKISKEERESESGGLRPNKQTFNPTDTNALVAAVAFGKGLSNWRPSGSSGPGQAGQPGAGTILAGTSGLQQVQMAGAPSQQQPMLSGVQMAQAGQPGKMPSGIKTNIKSASMHPYQR [MED8]” the same measures were 0.142 and 0.105.
For “MQSESGIVPDFEVGEEFHEEPKTYYELKSQPLKSSSSAEHPGASKPPISSSSMTSRILLRQQLMREQMQEQERREQQQKLQAAQFMQQRVPVSQTPAINVSVPTTLPSATQVPMEVLKVQTHLENPTKYHIQQAQRQQVKQYLSTTLANKHANQVLSLPCPNQPGDHVMPPVPGSSAPNSPMAMLTLNSNCEKEGFYKFEEQNRAESECPGMNTHSRASCMQMDDVIDDIISLESSYNEEILGLMDPALQMANTLPVSGNLIDLYGNQGLPPPGLTISNSCPANLPNIKRELTACIFPTESEARALAKERQKKDNHNLIERRRRFNINDRIKELGTLIPKSNDPDMRWNKGTILKASVDYIRKLQREQQRAKELENRQKKLEHANRHLLLRIQELEMQARAHGLSLIPSTGLCSPDLVNRIIKQEPVLENCSQDLLQHHADLTCTTTLDLTDGTITFNNNLGTGTEANQAYSVPTKMGSKLEDILMDDTLSPVGVTDPLLSSVSPGASKTSSRRSSMSMEETEHTC [MITF]” the same measures were 0.326 and 0.021.
Consider “MRAPIPEPKPGDLIEIFRPFYRHWAIYVGDGYVVHLAPPSEVAGAGAASVMSALTDKAIVKKELLYDVAGSDKYQVNNKHDDKYSPLPCSKIIQRAEELVGQEVLYKLTSENCEHFVNELRYGVARSDQVRDVIIAASVAGMGLAAMSLIGVMFSRNKRQKQ [PLA2G16]”, for which, in data set [1], the “solubility in G1/S (log2)” value worked out at 0.0787. The “solubility change mitosis (log2)” value in data set [2] was -0.137.
Taken in the same sequence, the figures for “MRDRLPDLTACRKNDDGDTVVVVEKDHFMDDFFHQVEEIRNSIDKITQYVEEVKKNHSIILSAPNPEGKIKEELEDLNKEIKKTANKIRAKLKAIEQSFDQDESGNRTSVDLRIRRTQHSVLSRKFVEAMAEYNEAQTLFRERSKGRIQRQLEITGRTTTDDELEEMLESGKPSIFTSDIISDSQITRQALNEIESRHKDIMKLETSIRELHEMFMDMAMFVETQGEMINNIERNVMNATDYVEHAKEETKKAIKYQSKARRKKWIIIAVSVVLVAIIALIIGLSVGK [STX2]” were 0.137 and 0.0333.
Regarding “MRDSTGAGNSLVHKRSPLRRNQKTPTSLTKLSLQDGHKAKKPACKFEEGQDVLARWSDGLFYLGTIKKINILKQSCFIIFEDSSKSWVLWKDIQTGATGSGEMVCTICQEEYSEAPNEMVICDKCGQGYHQLCHTPHIDSSVIDSDEKWLCRQCVFATTTKRGGALKKGPNAKALQVMKQTLPYSVADLEWDAGHKTNVQQCYCYCGGPGDWYLKMLQCCKCKQWFHEACVQCLQKPMLFGDRFYTFICSVCSSGPEYLKRLPLQWVDIAHLCLYNLSVIHKKKYFDSELELMTYINENWDRLHPGELADTPKSERYEHVLEALNDYKTMFMSGKEIKKKKHLFGLRIRVPPVPPNVAFKAEKEPEGTSHEFKIKGRKASKPISDSREVSNGIEKKGKKKSVGRPPGPYTRKMIQKTAEPLLDKESISENPTLDLPCSIGRTEGTAHSSNTSDVDFTGASSAKETTSSSISRHYGLSDSRKRTRTGRSWPAAIPHLRRRRGRLPRRALQTQNSEIVKDDEGKEDYQFDELNTEILNNLADQELQLNHLKNSITSYFGAAGRIACGEKYRVLARRVTLDGKVQYLVEWEGATAS [MTF2]”, the “solubility in G1/S (log2)” value in data set [1] is -1.31. Further, in data set [2], the “solubility change mitosis (log2)” value came to 0.618.
Taken in the same sequence, the figures for “MRLRNGTFLTLLLFCLCAFLSLSWYAALSGQKGDVVDVYQREFLALRDRLHAAEQESLKRSKELNLVLDEIKRAVSERQALRDGDGNRTWGRLTEDPRLKPWNGSHRHVLHLPTVFHHLPHLLAKESSLQPAVRVGQGRTGVSVVMGIPSVRREVHSYLTDTLHSLISELSPQEKEDSVIVVLIAETDSQYTSAVTENIKALFPTEIHSGLLEVISPSPHFYPDFSRLRESFGDPKERVRWRTKQNLDYCFLMMYAQSKGIYYVQLEDDIVAKPNYLSTMKNFALQQPSEDWMILEFSQLGFIGKMFKSLDLSLIVEFILMFYRDKPIDWLLDHILWVKVCNPEKDAKHCDRQKANLRIRFKPSLFQHVGTHSSLAGKIQKLKDKDFGKQALRKEHVNPPAEVSTSLKTYQHFTLEKAYLREDFFWAFTPAAGDFIRFRFFQPLRLERFFFRSGNIEHPEDKLFNTSVEVLPFDNPQSDKEALQEGRTATLRYPRSPDGYLQIGSFYKGVAEGEVDPAFGPLEALRLSIQTDSPVWVILSEIFLKKAD [MGAT4B]” were 0.0108 and -0.107.
Take “MRSFLQQDVNKTKSRLNVLNGLANNMDDLKINTDITGAKEELLDDNNFISDKESGVHKPKDCQTSFQKNNTLTLPEELSKDKSENALSGGQSSLFIHAGAPTVSSENFILPKGAAVNGPVSHSSLTKTSNMNKGSVSLTTGQPVDQPTTESCSTLKVAADLQLSTPQKASQHQVLFLLSDVAHAKNPTHSNKKLPTSASVGCDIQNSVGSNIKSDGTLINQVEVGEDGEDLLVKDDCVNTVTGISSGTDGFRSENDTNWDPQKEFIQFLMTNEETVDKAPPHSKIGLEKKRKRKMDVSKITRYTEDCFSDSNCVPNKSKMQEVDFLEQNEELQAVDSQKYALSKVKPESTDEDLESVDAFQHLIYNPDKCGEESSPVHTSTFLSNTLKKKCEESDSESPATFSTEEPSFYPCTKCNVNFREKKHLHRHMMYHLDGNSHFRHLNVPRPYACRECGRTFRDRNSLLKHMIIHQERRQKLMEEIRELKELQDEGRSARLQCPQCVFGTNCPKTFVQHAKTHEKDKRYYCCEECNFMAVTENELECHRGIAHGAVVKCPMVTSDIAQRKTQKKTFMKDSVVGSSKKSATYICKMCPFTTSAKSVLKKHTEYLHSSSCVDSFGSPLGLDKRKNDILEEPVDSDSTKTLTKQQSTTFPKNSALKQDVKRTFGSTSQSSSFSKIHKRPHRIQKARKSIAQSGVNMCNQNSSPHKNVTIKSSVDQKPKYFHQAAKEKSNAKANSHYLYRHKYENYRMIKKSGESYPVHFKKEEASSLNSLHLFSSSSNSHNNFISDPHKPDAKRPESFKDHRRVAVKRVIKESKKESSVGGEDLDSYPDFLHKMTVVVLQKLNSAEKKDSYETEDESSWDNVELGDYTTQAIEDETYSDINQEHVNLFPLFKSKVEGQEPGENATLSYDQNDGFYFEYYEDTGSNNFLHEIHDPQHLETADASLSKHSSVFHWTDLSLEKKSCPYCPATFETGVGLSNHVRGHLHRAGLSYEARHVVSPEQIATSDKMQHFKRTGTGTPVKRVRKAIEKSETTSEHTCQLCGGWFDTKIGLSNHVRGHLKRLGKTKWDAHKSPICVLNEMMQNEEKYEKILKALNSRRIIPRPFVAQKLASSDDFISQNVIPLEAYRNGLKTEALSVSASEEEGLNFLNEYDETKPELPSGKKNQSLTLIELLKNKRMGEERNSAISPQKIHNQTARKRFVQKCVLPLNEDSPLMYQPQKMDLTMHSALDCKQKKSRSRSGSKKKMLTLPHGADEVYILRCRFCGLVFRGPLSVQEDWIKHLQRHIVNANLPRTGAGMVEVTSLLKKPASITETSFSLLMAEAAS [ZNF644]”: in data set [1], the “solubility in G1/S (log2)” value is -0.00511. Moreover, the “solubility change mitosis (log2)” value in data set [2] was found to be 0.321.
For “MRVDSSADPTMSQEQGPGSSTPPSSPTLLDALLQNLYDFGGTEGETEQKKIIKKRENKKRDVMASAALAAEPSPLPGSLIRGQRKSASSFFKELREERHCAPSGTPTGPEILAAAVPPSSLKNNREQVEVVEFHSNKKRKLTPDHNKNTKQANPSVLERDVDTQEFNLEKARLEVHRFGITGYGKGKERILEQERAIMLGAKPPKKSYVNYKVLQEQIKEKKAAKEEEKRLAQETDIFKKKKRKGQEDRKSKKKSAPSILSNGRIGQVGKFKNGTLILSPVDIKKINSSRVAK [C1ORF131]” the same measures were -1.24 and 0.969.
For the sequence “MSAALLRRGLELLAASEAPRDPPGQAKPRGAPVKRPRKTKAIQAQKLRNSAKGKVPKSALDEYRKRECRDHLRVNLKFLTRTRSTVAESVSQQILRQNRGRKACDRPVAKTKKKKAEGTVFTEEDFQKFQQEYFGS [RPS19BP1]”, the “solubility in G1/S (log2)” value in data set [1] is -0.897. Also, the “solubility change mitosis (log2)” value in data set [2] was determined as 0.671.
